We go through six molecules from paper PMC3402474 (PLoS ONE, 2012).

Numbering of substitutions follows the chain as printed.

To fix the notation:
B1: Bmh1 (natural protein, S. cerevisiae, UniProt P29311 1-267, looked up)
chain: MSTSREDSVYLAKLAEQAERYEEMVENMKTVASSGQELSVEERNLLSVAYKNVIGARRASWRIVSSIEQKEESKEKSEHQVELICSYRSKIETELTKISDDILSVLDSHLIPSATTGESKVFYYKMKGDYHRYLAEFSSGDAREKATNASLEAYKTASEIATTELPPTHPIRLGLALNFSVFYYEIQNSPDKACHLAKQAFDDAIAELDTLSEESYKDSTLIMQLLRDNLTLWTSDMSESGQAEDQQQQQQHQQQQPPAAAEGEAPK
notes: also called yeast 14-3-3 protein Bmh1; recombinant Bmh1
B2: Bmh2 (natural protein, S. cerevisiae, UniProt P34730 1-273, looked up)
chain: MSQTREDSVYLAKLAEQAERYEEMVENMKAVASSGQELSVEERNLLSVAYKNVIGARRASWRIVSSIEQKEESKEKSEHQVELIRSYRSKIETELTKISDDILSVLDSHLIPSATTGESKVFYYKMKGDYHRYLAEFSSGDAREKATNSSLEAYKTASEIATTELPPTHPIRLGLALNFSVFYYEIQNSPDKACHLAKQAFDDAIAELDTLSEESYKDSTLIMQLLRDNLTLWTSDISESGQEDQQQQQQQQQQQQQQQQQAPAEQTQGEPTK
notes: also called yeast 14-3-3 protein Bmh2; recombinant Bmh2
B3: ammodytin L (natural protein)
chain: SVIEFGKMIQEETDKNPLTSYSFYGCHCGLGNKGKPKDATDRCCFVHSCCYAKLPDCSPKTNRYEYHRENGAIVCGSSTPCKKQICECDRAAAICFRENLKTYNKKYKVYLRFKCKGVSEKC
B4: ammodytoxin A (enzyme)
chain: SLLEFGMMILGETGKNPLTSYSFYGCYCGVGGKGTPKDATDRCCFVHDCCYGNLPDCSPKTDRYKYHRENGAIVCGKGTSCENRICECDRAAAICFRKNLKTYNYIYRNYPDFLCKKESEKC
B5: ammodytoxin B (enzyme)
chain: B4 chain with Y105H, R108M, N109Y
notes: also called AtxB
B6: ammodytoxin C (enzyme)
chain: B4 chain with F113I, K117E
notes: also called AtxC

The data set “dynamic light scattering” deals with the molecule itself. Briefly: dynamic light scattering.
Data set [1] deals with B2. Briefly: SPR. As to conditions: both partners purified.
Data set [2] deals with B1. In words: SPR. The following applies: both partners purified.
For data set [3], the target named is B2. In words: SPR; BiacoreX, 25°C; recombinant Bmh1 or Bmh2 in 50 mM Tris (pH 7.5), 150 mM NaCl, 0.1 mM CaCl2 immobilized to CM5 chips; 2 µM sPLA2 injected; dissociation monitored 180 s; responses corrected for surface density and molecular weights. As to conditions: both partners purified. (In SPR one partner is held on a chip, and binding of the other changes the refractive index at the surface.)

The target in data set [4] is B1. The data set is described as above. As to conditions: both partners purified.

Regarding B1, in “dynamic light scattering”, the “stoichiometry N” value came out at 2. The same measure, in the same setting: in the case of B2 it was 2. For B3, the binding result with Bmh2 [1] and in the data set with Bmh1 [2] was “binds” throughout. In the case of B4, the binding result with Bmh2 [1] and with Bmh1 [2] was “binds” throughout. Consider B5, for which the binding result with Bmh2 [3] and with Bmh1 [4] was “binds” each time.

For B6, the binding result in the data set with Bmh2 [3] and with Bmh1 [4] was “binds” each time.

In general, stoichiometry N refers to the number of molecules, sites or subunits per partner or assembly.
